From paper PMC10786891, “Massively parallel profiling of RNA-targeting CRISPR-Cas13d”

T1: EsCas13d, nuclease-dead (Eubacterium siraeum, UniProt B0MS50, R295A;H300A;R849A;H854A)
T1 sequence: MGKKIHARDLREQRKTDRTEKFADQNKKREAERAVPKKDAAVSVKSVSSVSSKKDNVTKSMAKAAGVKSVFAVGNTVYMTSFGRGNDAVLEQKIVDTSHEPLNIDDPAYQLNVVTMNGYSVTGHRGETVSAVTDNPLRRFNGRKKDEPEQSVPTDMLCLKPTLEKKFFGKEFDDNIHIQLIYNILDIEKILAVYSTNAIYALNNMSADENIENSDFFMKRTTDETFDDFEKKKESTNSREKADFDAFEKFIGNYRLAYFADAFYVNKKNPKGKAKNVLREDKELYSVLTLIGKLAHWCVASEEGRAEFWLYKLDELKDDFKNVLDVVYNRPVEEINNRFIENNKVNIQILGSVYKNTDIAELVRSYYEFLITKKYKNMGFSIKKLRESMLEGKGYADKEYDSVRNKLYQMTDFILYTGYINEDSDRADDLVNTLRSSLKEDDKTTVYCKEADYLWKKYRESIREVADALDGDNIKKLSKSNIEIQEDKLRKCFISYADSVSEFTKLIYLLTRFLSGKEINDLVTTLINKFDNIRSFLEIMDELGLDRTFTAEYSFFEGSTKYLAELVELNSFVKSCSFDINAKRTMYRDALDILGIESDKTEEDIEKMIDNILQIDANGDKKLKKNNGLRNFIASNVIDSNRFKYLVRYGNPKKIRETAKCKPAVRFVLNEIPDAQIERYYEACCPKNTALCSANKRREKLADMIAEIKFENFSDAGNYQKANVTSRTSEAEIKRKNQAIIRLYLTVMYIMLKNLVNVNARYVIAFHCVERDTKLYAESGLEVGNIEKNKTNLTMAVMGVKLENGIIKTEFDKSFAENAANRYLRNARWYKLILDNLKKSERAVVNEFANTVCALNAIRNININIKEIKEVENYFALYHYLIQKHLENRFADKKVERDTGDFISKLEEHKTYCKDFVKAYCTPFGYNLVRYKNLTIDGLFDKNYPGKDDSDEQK

B1: target 1 C2U,U10C (mixed)
RNA 1: CACCCGUGCAAAAAUGCAGGGGUCUAAAACUGAGCGGAUAACCUCUCUAUGG
RNA 2: GGGAAUGGAUCCACAUCUACGAAUUCGUACCAUAGAGAGGUCAUCCGCUUACCGAGAUCGGAAGAGCACACGU
B2: target 1 insG 3' of 22,insU 3' of 20 (mixed)
RNA 1: CACCCGUGCAAAAAUGCAGGGGUCUAAAACUGAGCGGAUAACCUCUCUAUGG
RNA 2: GGGAAUGGAUCCACAUCUACGAAUUCGUACGCAUUAGAGAGGUUAUCCGCUCACCGAGAUCGGAAGAGCACACGU
B3: target 3 insC 3' of 11,insA 3' of 7 (mixed)
RNA 1: CACCCGUGCAAAAUUGCAGGGGUCUAAAACGACCUGAAUAUUUCAGAUCAAA
RNA 2: GGGAAUGGAUCCACAUCUACGAAUUCGUUUUUGAUCUGAAACUAUUACAGGUCUGCAGAUCGGAAGAGCACACGU
B4: target 3 insC 3' of 5,insA 3' of 3 (mixed)
RNA 1: CACCCGUGCAAAAUUGCAGGGGUCUAAAACGACCUGAAUAUUUCAGAUCAAA
RNA 2: GGGAAUGGAUCCACAUCUACGAAUUCGUUUUUGAUCUGAAAUAUUCACGGAUCUGCAGAUCGGAAGAGCACACGU
B5: target 3 U8C,A11C (mixed)
RNA 1: CACCCGUGCAAAAUUGCAGGGGUCUAAAACGACCUGAAUAUUUCAGAUCAAA
RNA 2: GGGAAUGGAUCCACAUCUACGAAUUCGUUUUUGAUCUGAACUACUCAGGUCUGCAGAUCGGAAGAGCACACGU
B6: target 3 G3C,U7C (mixed)
RNA 1: CACCCGUGCAAAAUUGCAGGGGUCUAAAACGACCUGAAUAUUUCAGAUCAAA
RNA 2: GGGAAUGGAUCCACAUCUACGAAUUCGUUUUUGAUCUGAAAUAUCCAGCUCUGCAGAUCGGAAGAGCACACGU
B7: target 3 C6A,U8C (mixed)
RNA 1: CACCCGUGCAAAAUUGCAGGGGUCUAAAACGACCUGAAUAUUUCAGAUCAAA
RNA 2: GGGAAUGGAUCCACAUCUACGAAUUCGUUUUUGAUCUGAAAUACUAAGGUCUGCAGAUCGGAAGAGCACACGU
B8: target 3 insC 3' of 8,insA 3' of 8 (mixed)
RNA 1: CACCCGUGCAAAAUUGCAGGGGUCUAAAACGACCUGAAUAUUUCAGAUCAAA
RNA 2: GGGAAUGGAUCCACAUCUACGAAUUCGUUUUUGAUCUGAAAUAUCAUCAGGUCUGCAGAUCGGAAGAGCACACGU
B9: target 3 insU 3' of 14,insC 3' of 3 (mixed)
RNA 1: CACCCGUGCAAAAUUGCAGGGGUCUAAAACGACCUGAAUAUUUCAGAUCAAA
RNA 2: GGGAAUGGAUCCACAUCUACGAAUUCGUUUUUGAUCUGUAAAUAUUCAGGCUCUGCAGAUCGGAAGAGCACACGU
B10: target 3 C1G,A12U (mixed)
RNA 1: CACCCGUGCAAAAUUGCAGGGGUCUAAAACGACCUGAAUAUUUCAGAUCAAA
RNA 2: GGGAAUGGAUCCACAUCUACGAAUUCGUUUUUGAUCUGAUAUAUUCAGGUGUGCAGAUCGGAAGAGCACACGU
B11: target 3 insC 3' of 7,insG 3' of 7 (mixed)
RNA 1: CACCCGUGCAAAAUUGCAGGGGUCUAAAACGACCUGAAUAUUUCAGAUCAAA
RNA 2: GGGAAUGGAUCCACAUCUACGAAUUCGUUUUUGAUCUGAAAUAUUCGCAGGUCUGCAGAUCGGAAGAGCACACGU
B12: target 3 A12U (mixed)
RNA 1: CACCCGUGCAAAAUUGCAGGGGUCUAAAACGACCUGAAUAUUUCAGAUCAAA
RNA 2: GGGAAUGGAUCCACAUCUACGAAUUCGUUUUUGAUCUGAUAUAUUCAGGUCUGCAGAUCGGAAGAGCACACGU
B13: target 3 insG 3' of 9,insU 3' of 4 (mixed)
RNA 1: CACCCGUGCAAAAUUGCAGGGGUCUAAAACGACCUGAAUAUUUCAGAUCAAA
RNA 2: GGGAAUGGAUCCACAUCUACGAAUUCGUUUUUGAUCUGAAAUAGUUCAGUGUCUGCAGAUCGGAAGAGCACACGU
B14: target 3 insA 3' of 22,insA 3' of 21 (mixed)
RNA 1: CACCCGUGCAAAAUUGCAGGGGUCUAAAACGACCUGAAUAUUUCAGAUCAAA
RNA 2: GGGAAUGGAUCCACAUCUACGAAUUCGUUUAUAUGAUCUGAAAUAUUCAGGUCUGCAGAUCGGAAGAGCACACGU
B15: target 3 U2G,A9C (mixed)
RNA 1: CACCCGUGCAAAAUUGCAGGGGUCUAAAACGACCUGAAUAUUUCAGAUCAAA
RNA 2: GGGAAUGGAUCCACAUCUACGAAUUCGUUUUUGAUCUGAAAUCUUCAGGGCUGCAGAUCGGAAGAGCACACGU
B16: target 3 G4C,A9G (mixed)
RNA 1: CACCCGUGCAAAAUUGCAGGGGUCUAAAACGACCUGAAUAUUUCAGAUCAAA
RNA 2: GGGAAUGGAUCCACAUCUACGAAUUCGUUUUUGAUCUGAAAUGUUCACGUCUGCAGAUCGGAAGAGCACACGU
B17: target 3 insC 3' of 9,insG 3' of 9 (mixed)
RNA 1: CACCCGUGCAAAAUUGCAGGGGUCUAAAACGACCUGAAUAUUUCAGAUCAAA
RNA 2: GGGAAUGGAUCCACAUCUACGAAUUCGUUUUUGAUCUGAAAUACGUUCAGGUCUGCAGAUCGGAAGAGCACACGU
B18: target 3 insU 3' of 11,insU 3' of 5 (mixed)
RNA 1: CACCCGUGCAAAAUUGCAGGGGUCUAAAACGACCUGAAUAUUUCAGAUCAAA
RNA 2: GGGAAUGGAUCCACAUCUACGAAUUCGUUUUUGAUCUGAAAUUAUUCAUGGUCUGCAGAUCGGAAGAGCACACGU
B19: target 3 complement block 4-8 (mixed)
RNA 1: CACCCGUGCAAAAUUGCAGGGGUCUAAAACGACCUGAAUAUUUCAGAUCAAA
RNA 2: GGGAAUGGAUCCACAUCUACGAAUUCGUUUUUGAUCUGAAAUAAAGUCGUCUGCAGAUCGGAAGAGCACACGU
B20: target 3 U2G,A13G (mixed)
RNA 1: CACCCGUGCAAAAUUGCAGGGGUCUAAAACGACCUGAAUAUUUCAGAUCAAA
RNA 2: GGGAAUGGAUCCACAUCUACGAAUUCGUUUUUGAUCUGGAAUAUUCAGGGCUGCAGAUCGGAAGAGCACACGU
B21: target 3 insC 3' of 9,insA 3' of 8 (mixed)
RNA 1: CACCCGUGCAAAAUUGCAGGGGUCUAAAACGACCUGAAUAUUUCAGAUCAAA
RNA 2: GGGAAUGGAUCCACAUCUACGAAUUCGUUUUUGAUCUGAAAUACUAUCAGGUCUGCAGAUCGGAAGAGCACACGU
B22: target 3 C1G,A5G (mixed)
RNA 1: CACCCGUGCAAAAUUGCAGGGGUCUAAAACGACCUGAAUAUUUCAGAUCAAA
RNA 2: GGGAAUGGAUCCACAUCUACGAAUUCGUUUUUGAUCUGAAAUAUUCGGGUGUGCAGAUCGGAAGAGCACACGU
B23: target 3 A5G (mixed)
RNA 1: CACCCGUGCAAAAUUGCAGGGGUCUAAAACGACCUGAAUAUUUCAGAUCAAA
RNA 2: GGGAAUGGAUCCACAUCUACGAAUUCGUUUUUGAUCUGAAAUAUUCGGGUCUGCAGAUCGGAAGAGCACACGU
B24: target 3 C1A,U7G (mixed)
RNA 1: CACCCGUGCAAAAUUGCAGGGGUCUAAAACGACCUGAAUAUUUCAGAUCAAA
RNA 2: GGGAAUGGAUCCACAUCUACGAAUUCGUUUUUGAUCUGAAAUAUGCAGGUAUGCAGAUCGGAAGAGCACACGU

target: T1, EsCas13d, nuclease-dead; assay: crRNA (strand 1, pre-loaded); Mg2+; 40 mM Tris-HCl pH 7.5, 150 mM NaCl, 6 mM MgCl2, 1 mM DTT, 0.1% Tween-20, 0.2 mg/ml BSA; 25 C; 10 min per concentration, then washed; conditions: tags: His6-TwinStrep-SUMO cleaved; N-terminal SNAP kept (SNAP-Surface 488); label: 3' end held by stalled T7 RNA polymerase

Q: B1 was tested. Which Kd did it give?
A: Its Kd is 20.8 ± 1.6 nM.

Q: Which Kd does the source give for B2 here?
A: Its Kd is 38 ± 5 nM.

Q: B3 was tested. Which Kd did it give?
A: The Kd was 65 ± 19 nM.

Q: B4 was tested. Which Kd did it give?
A: The Kd was 7.35 ± 0.5 nM.

Q: How did the Kd turn out when B5 was run?
A: Its Kd is 57 ± 14 nM.

Q: How did the Kd turn out when B6 was run?
A: Its Kd is 64 ± 12 nM.

Q: How did the Kd turn out when B7 was run?
A: Its Kd is 34.9 ± 3.6 nM.

Q: With B8 as the binder, how does the Kd read?
A: Its Kd is 76.5 ± 19 nM.

Q: B9 was tested. Which Kd did it give?
A: The Kd was 71 ± 28 nM.

Q: For B10, which Kd is on record?
A: The Kd was 63 ± 18 nM.

Q: Which Kd does the source give for B11 here?
A: The Kd was 16.8 ± 1.45 nM.

Q: With B12 as the binder, how does the Kd read?
A: Its Kd is 73.5 ± 19.5 nM.

Q: Which Kd does the source give for B13 here?
A: The Kd was 74.5 ± 19 nM.

Q: Which Kd does the source give for B14 here?
A: Its Kd is 31.9 ± 4.5 nM.

Q: B15 was tested. Which Kd did it give?
A: The Kd was 106 ± 49.5 nM.

Q: For B16, which Kd is on record?
A: Its Kd is 43.5 ± 6.5 nM.

Q: For B17, which Kd is on record?
A: The Kd was 118 ± 50 nM.

Q: For B18, which Kd is on record?
A: The Kd was 64 ± 13 nM.

Q: Which Kd does the source give for B19 here?
A: The Kd was 51.5 ± 5.5 nM.

Q: B20 was tested. Which Kd did it give?
A: The Kd was 73.5 ± 29 nM.

Q: B21 was tested. Which Kd did it give?
A: The Kd was 43.9 ± 7.35 nM.

Q: How did the Kd turn out when B22 was run?
A: Its Kd is 55 ± 22 nM.

Q: How did the Kd turn out when B23 was run?
A: Its Kd is 20.9 ± 1.8 nM.

Q: For B24, which Kd is on record?
A: Its Kd is 24.5 ± 6 nM.
